22 substances from patent publication US20050221433A1 can be followed below.

The test has as its target recombinant human IL-18 (human) (UniProt Q14116). Briefly: cell-based or functional assay.

Chain of recombinant human IL-18 (human) (Q14116 37-193 limits assumed): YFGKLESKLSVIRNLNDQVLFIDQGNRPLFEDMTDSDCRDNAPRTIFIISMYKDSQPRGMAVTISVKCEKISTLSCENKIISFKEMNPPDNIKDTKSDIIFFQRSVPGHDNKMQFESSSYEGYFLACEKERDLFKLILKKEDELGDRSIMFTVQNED
Chain of hIL18BPa (64-192).TG.hFc (O95998 other isoform, or with tags, fused parts or gaps): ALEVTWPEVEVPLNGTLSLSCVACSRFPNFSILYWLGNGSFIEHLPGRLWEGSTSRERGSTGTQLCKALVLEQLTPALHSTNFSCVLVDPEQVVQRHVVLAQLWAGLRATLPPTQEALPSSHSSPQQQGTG
Chain of hIL18BPa (1-192).His (O95998 31-194): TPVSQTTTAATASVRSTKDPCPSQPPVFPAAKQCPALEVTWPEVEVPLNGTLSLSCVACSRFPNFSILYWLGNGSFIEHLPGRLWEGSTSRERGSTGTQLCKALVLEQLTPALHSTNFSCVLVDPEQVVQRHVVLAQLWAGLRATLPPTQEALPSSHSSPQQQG
Chain of hIL18BPa (1-168).TG.hFc (O95998 other isoform, or with tags, fused parts or gaps): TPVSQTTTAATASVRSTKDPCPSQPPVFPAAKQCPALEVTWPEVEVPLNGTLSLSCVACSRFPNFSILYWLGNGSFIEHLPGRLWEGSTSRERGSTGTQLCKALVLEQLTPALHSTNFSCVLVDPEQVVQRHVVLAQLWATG
Chain of hIL18BPa (58-192).TG.his (O95998 other isoform, or with tags, fused parts or gaps): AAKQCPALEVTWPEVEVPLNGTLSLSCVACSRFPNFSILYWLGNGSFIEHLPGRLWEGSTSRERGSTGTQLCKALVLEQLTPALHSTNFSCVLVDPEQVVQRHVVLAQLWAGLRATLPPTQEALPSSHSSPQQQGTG

For “hIL18BPa (58-192)(C84S).TG.hFc (from UniProt O95998 60-194) (Fc fusion)”, the IC50 (M), HEK293/NFkB-luciferase bioassay came out at 7.38e-09 M.

On to “hIL18BPa (58-192) (C129E).TG.hFc (from UniProt O95998 60-194) (Fc fusion)”, for which the IC50 (M), HEK293/NFkB-luciferase bioassay turned out to be 5.15e-10 M.

With “hIL18BPa (58-192) (C62S, C87S, C129S).TG.hFc (from UniProt O95998 60-194) (Fc fusion)”, the IC50 (M), HEK293/NFkB-luciferase bioassay was determined as 7.56e-09 M.

Regarding “hIL18BPa (1-192) (C84S).TG.hFc (from UniProt O95998 31-194) (Fc fusion)”, the IC50 (M), HEK293/NFkB-luciferase bioassay is 2.6e-05 M.

Consider “hIL18BPa (58-192) (C129K).TG.hFc (from UniProt O95998 60-194) (Fc fusion)”, for which the IC50 (M), HEK293/NFkB-luciferase bioassay turned out to be 7.42e-11 M.

On to “hIL18BPa (58-192) (C129D).TG.hFc (from UniProt O95998 60-194) (Fc fusion)”, for which the IC50 (M), HEK293/NFkB-luciferase bioassay stood at 2.98e-09 M.

Turning to “hIL18BPa (58-192)(C87S, C129S).TG.hFc (from UniProt O95998 60-194) (Fc fusion)”, the IC50 (M), HEK293/NFkB-luciferase bioassay stood at 7.5e-09 M.

“hIL18BPa (1-192) (C49S, C129S).hIL18Rβ.hFc (Fc fusion)”: the IC50 (M), HEK293/NFkB-luciferase bioassay is 2.06e-10 M.

Consider “hIL18Rβ.hIL18BPa (1-192) (C49S, C129S).hFc (Fc fusion)”, for which the IC50 (M), HEK293/NFkB-luciferase bioassay amounted to 1.38e-09 M.

As for “hIL18BPa (64-192).TG.hFc (from UniProt O95998 66-194) (Fc fusion)”, the IC50 (M), HEK293/NFkB-luciferase bioassay turned out to be 7e-09 M.

“hIL18BPa (1-192) (C129S).hFc (from UniProt O95998 31-194) (Fc fusion)”: the IC50 (M), HEK293/NFkB-luciferase bioassay turned out to be 2.05e-10 M.

With “hIL18BPa (1-168).TG.hFc (from UniProt O95998 31-170) (Fc fusion)”, the IC50 (M), HEK293/NFkB-luciferase bioassay is 1.75e-09 M.

Turning to “hIL18BPa(58-192)(C62S, C129S, C148S).TG.hFc (from UniProt O95998 60-194) (Fc fusion)”, the IC50 (M), HEK293/NFkB-luciferase bioassay was found to be 6.7e-09 M.

Regarding “hIL18BPa (58-192) (C129H).TG..hFc (from UniProt O95998 60-194) (Fc fusion)”, the IC50 (M), HEK293/NFkB-luciferase bioassay stood at 8.44e-11 M.

For the substance “hIL18BPa (58-192).TG.his (from UniProt O95998 60-194) (receptor)”, the IC50 (M), HEK293/NFkB-luciferase bioassay came out at 4.1e-10 M.

“hIL18BPa (58-192)(C87S, C129S, C148S).TG.hFc (from UniProt O95998 60-194) (Fc fusion)”: the IC50 (M), HEK293/NFkB-luciferase bioassay turned out to be 9.7e-09 M.

“hIL18BPa (58-192)(C62S, C129S).TG.hFc (from UniProt O95998 60-194) (Fc fusion)”: the IC50 (M), HEK293/NFkB-luciferase bioassay amounted to 9e-09 M.

As for “hIL18BPa (58-192) (C129S).biot.His (from UniProt O95998 60-194) (receptor)”, the IC50 (M), HEK293/NFkB-luciferase bioassay came out at 4e-11 M.

Turning to “hIL18Rβ.SG.hIL18BPa (58-192).TG.hFc (Fc fusion)”, the IC50 (M), HEK293/NFkB-luciferase bioassay is 2.3e-09 M.

As for “hIL18BPa (58-192) (C129S, C148S).TG.hFc (from UniProt O95998 60-194) (Fc fusion)”, the IC50 (M), HEK293/NFkB-luciferase bioassay worked out at 7.3e-09 M.

On to “hIL18BPa (1-192).His (from UniProt O95998 31-194) (receptor)”, for which the IC50 (M), HEK293/NFkB-luciferase bioassay came out at 2.1e-10 M.

With “hFc.TG.hIL18BPa (58-192) (C129S). (from UniProt O95998 60-194) (Fc fusion)”, the IC50 (M), HEK293/NFkB-luciferase bioassay was determined as 1.51e-10 M.
